# Measured values reported in patent publication US20130029913A1, “ARTIFICIAL PLATELETS” (priority 2005, published 2013).
# Primed or numbered codes have the meaning given here. No end group written: not given here. MAL″ = maleimide moiety on the C-terminal lysine; MAL = maleimide moiety
# T1: human fibrinogen (Scottish National Blood Transfusion Service: SNBTS) (human, UniProt P02671 20-629; P02675 31-491; P02679 27-437, limits assumed)
# T1 sequence (looked up) 1: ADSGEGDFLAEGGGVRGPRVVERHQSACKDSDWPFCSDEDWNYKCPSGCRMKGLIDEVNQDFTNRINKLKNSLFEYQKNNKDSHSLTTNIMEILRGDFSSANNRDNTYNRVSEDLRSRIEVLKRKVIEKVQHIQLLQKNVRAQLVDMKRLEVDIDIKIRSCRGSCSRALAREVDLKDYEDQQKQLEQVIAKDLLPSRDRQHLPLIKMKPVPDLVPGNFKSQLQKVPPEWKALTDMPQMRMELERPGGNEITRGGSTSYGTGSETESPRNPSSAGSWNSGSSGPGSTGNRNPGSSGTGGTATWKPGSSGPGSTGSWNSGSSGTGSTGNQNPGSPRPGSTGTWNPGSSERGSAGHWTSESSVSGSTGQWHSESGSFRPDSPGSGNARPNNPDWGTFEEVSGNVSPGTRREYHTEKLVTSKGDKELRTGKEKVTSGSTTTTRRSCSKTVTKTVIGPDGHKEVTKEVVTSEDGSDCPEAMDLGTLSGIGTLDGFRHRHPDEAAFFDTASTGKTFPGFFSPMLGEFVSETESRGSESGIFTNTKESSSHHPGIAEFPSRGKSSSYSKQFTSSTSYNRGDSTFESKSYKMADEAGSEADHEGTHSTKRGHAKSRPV
# T1 sequence (looked up) 2: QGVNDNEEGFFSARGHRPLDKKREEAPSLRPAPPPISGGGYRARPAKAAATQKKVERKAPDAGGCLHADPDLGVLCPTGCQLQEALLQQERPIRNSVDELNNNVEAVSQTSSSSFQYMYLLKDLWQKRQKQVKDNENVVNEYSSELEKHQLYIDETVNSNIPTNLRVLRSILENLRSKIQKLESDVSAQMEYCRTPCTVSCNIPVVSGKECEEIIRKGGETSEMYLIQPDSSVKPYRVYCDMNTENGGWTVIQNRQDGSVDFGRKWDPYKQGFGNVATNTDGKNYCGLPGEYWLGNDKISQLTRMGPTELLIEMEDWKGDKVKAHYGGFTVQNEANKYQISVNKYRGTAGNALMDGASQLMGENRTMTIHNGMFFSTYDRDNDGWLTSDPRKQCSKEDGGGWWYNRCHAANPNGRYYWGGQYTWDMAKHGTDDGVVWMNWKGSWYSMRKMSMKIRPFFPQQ
# T1 sequence (looked up) 3: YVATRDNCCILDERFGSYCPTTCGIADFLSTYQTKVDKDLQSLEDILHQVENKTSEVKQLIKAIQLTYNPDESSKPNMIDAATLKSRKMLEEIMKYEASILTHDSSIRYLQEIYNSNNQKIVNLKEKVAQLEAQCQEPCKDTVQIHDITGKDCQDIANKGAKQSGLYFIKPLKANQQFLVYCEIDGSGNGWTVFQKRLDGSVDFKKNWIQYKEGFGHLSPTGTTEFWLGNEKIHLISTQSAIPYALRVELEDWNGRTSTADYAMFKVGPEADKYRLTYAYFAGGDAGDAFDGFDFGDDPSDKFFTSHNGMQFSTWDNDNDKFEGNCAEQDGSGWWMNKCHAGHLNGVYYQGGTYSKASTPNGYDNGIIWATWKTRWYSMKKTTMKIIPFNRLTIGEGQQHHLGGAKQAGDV
# B1: Peptide C (H2N-LVPRGPRPG5K-MAL), fibrinogen binding precursor peptide linked to human albumin microparticles, not exposed to thrombin (peptide)
# peptide: H-LVPRGPRPGGGGGK(MAL″)
# modifications: also: thioether-linked via maleimide to albumin microparticle sulphydryl
# notes: Synthetic peptide immobilised on microparticles of human serum albumin; tested as the intact precursor; also called peptide C modified microparticles; microparticles modified with peptide C
# Columns and labels:
# Fibrinogen [1] = biological target: T2, Fibrinogen (Homo sapiens, UniProt P02679); test: Binding of fibrinogen to peptide-linked microspheres in absence and presence of thrombin (flow cytometry)
# Procedure: Peptide A linked microspheres, and Peptide B linked microspheres were prepared as described in Example 2, and were mixed for 30 minutes with buffer or thrombin as shown in the table below:
# The microspheres were then recovered by centrifuging at 1800 g for 10 minutes. The microspheres were resuspended in 100 μl Tris to give a final concentration of 5 mg/ml. 10 μl of Hirudin 100 U/ml was added to inhibit residual thrombin.
# 180 μl Fibrinogen at a concentration 0.1 mg/ml was added to 20 μl of Peptide A or Peptide B linked microspheres and mixed for 1 hr.
# Fibrinogen binding was measured as follows. 5 μl microspheres were added to 50 μl HEPES buffer pH […] FITC labelled antibody to human fibrinogen was added and mixed for 20 minutes. The reaction was stopped with addition of 0.2% Formyl saline. Bound fluorescence was measured using a Beckman Coulter XL MCL Flow Cytometer.
# plasma [2] = test: Clot formation in plasma in response to thrombin (turbidimetric, PAP-4); type: biochemical
# Procedure: Microparticle clot formation in plasma was determined turbidimetrically using the Platelet Aggregation Profiler® PAP-4 (BioData Corporation, PA) as described above.
# (§1) Peptide C modified microparticles were prepared as described in Example 5 at a stock concentration of 2.5 mg/ml in HBS. The baseline optical density was set with plasma, which had been prepared from citrated blood. Plasma samples (205 μl) were pre-warmed to 37° C. for 1 min before the addition of microparticles (25 μl), with the stir bar rate set at 900 rpm. After two minutes 20 uL of human thrombin (Sigma) stock solution was added to the reaction to give a final thrombin concentration of 0.25 U/ml.
# Fibrinogen [3] = biological target: T2, Fibrinogen; test: Fibrinogen binding to microparticles after incubation with or without thrombin (flow cytometry); parameters: purchased Scottish National Blood Transfusion Service (SNBTS)
# Procedure: (§2) Microparticles were mixed with fibrinogen solution after exposure to thrombin to confirm that fibrinogen-binding sequence is exposed by thrombin.
# (§3) Microparticles at 0.7, 5 or 10 mg/ml were incubated with 0-0.64 U/mL thrombin at 37° C. after 2 min the thrombin was inhibited by the addition of hirudin (Sigma) at a final concentration of 10 U/mL. Microparticles were centrifuged at 9300 g for 5 min and resuspended in HBS to give 14 mg/mL. The microparticles were diluted 10-fold in 0.1 mg/mL human fibrinogen (Scottish National Blood Transfusion Service: SNBTS) and incubated at room temperature for 1 h. The amount of fibrinogen bound was determined by flow cytometry with a polyclonal antibody rabbit-anti-human fibrinogen-FITC (Dako Cytomation).
# Thrombocytopenic blood = test: Platelet aggregation in thrombocytopenic blood activated by ADP (impedance aggregometer); type: cell-based; details: microparticles pre-exposed to thrombin, 6 min
# Procedure: Platelet aggregation in the presence of peptide C modified microparticles was measured using a Multiplatelet impedance aggregometer (Multiplate® Dynabyte medical, Munich).
# Peptide C modified microparticles were prepared as described in Example 5 at a stock concentration of 2.5 mg/ml in HBS. The microparticles (0.75 mg) were pre-incubated for 1 h with 1 U/ml human thrombin (Sigma) in HBS (total volume 0.3 ml). To inhibit thrombin activity hirudin (Sigma) was added at a final concentration of 5 U/ml. The reaction was centrifuged at 9300 g for 5 min and the supernatant was discarded. The microparticles were resuspended in HBS to a concentration of 2.5 mg/ml.
# Thrombocytopenic blood was prepared from citrated blood as follows:
# Platelets were removed by centrifuging whole blood at 163 g for 20 min and discarding the platelet rich upper layer. The upper platelet rich layer was replaced by plasma that was isolated as the supernatant after centrifuging whole blood at 1800 g for 30 min.
# To monitor electrical impedance; to each electrode well 0.3 ml of blood was incubated at 37° C. with microparticles (0.15 mg) and saline to give a total volume of 0.6 ml. Aggregation was recorded immediately after the addition of 30 μl of activator adenosine diphosphate solution (0.1 mM). Aggregation was recorded for 6 min; results in FIG. 9 are expressed in arbitrary units of final aggregation.
# Fibrinogen [4] = biological target: T2, Fibrinogen; test: Clot formation in fibrinogen in response to thrombin (turbidity, PAP-4); type: biochemical; parameters: purchased SNBTS
# Procedure: Clot formation was determined by a […] in turbidity using the Platelet Aggregation Profiler® PAP-4 (BioData Corporation, PA) as follows; Peptide C linked microparticles were prepared as described in Example 5 at a stock concentration of 2.5 mg/ml in Hepes buffered saline (HBS). The baseline optical density was set with fibrinogen (SNBTS) solution at 3 mg/ml in HBS. Fibrinogen solutions (205 μl) were pre-warmed to 37° C. for 1 min before the addition of microparticles (25 μl), with the stir bar rate set at 900 rpm. After two min 20 μL of human thrombin (Sigma) stock solution was added to give a final concentration of 0.032 U/ml.
# plasma [5] = test: Clot formation in plasma after microparticles pre-incubated with thrombin (turbidimetric, PAP-4); type: biochemical
# Procedure: Clot formation as monitored in plasma with peptide C modified microparticles that had been pre-exposed to thrombin in a buffer. Microparticle clot formation in plasma was determined turbidimetrically using the Platelet Aggregation Profiler® PAP-4 (BioData Corporation, PA) as described above.
# as §1, with “HBS. Peptide C modified microparticles were pre-incubated with 0.6 U/ml thrombin for 1 h and then hirudin (10 U/ml) was added to inhibit thrombin activity. The reactions were centrifuged at 9300 g for 5 min then resuspended in HBS at 2.5 mg/ml.” for “HBS.”, “of” for “of human”, “thrombin” for “thrombin (Sigma)”
# [6] = biological target: T1, human fibrinogen (Scottish National …); test: flow cytometry with rabbit anti-human fibrinogen-FITC on microparticles
# Procedure: as §2, §3
# T2 sequence (P02671 20-644 isoform P02671-2 partner limits assumed, one chain of several): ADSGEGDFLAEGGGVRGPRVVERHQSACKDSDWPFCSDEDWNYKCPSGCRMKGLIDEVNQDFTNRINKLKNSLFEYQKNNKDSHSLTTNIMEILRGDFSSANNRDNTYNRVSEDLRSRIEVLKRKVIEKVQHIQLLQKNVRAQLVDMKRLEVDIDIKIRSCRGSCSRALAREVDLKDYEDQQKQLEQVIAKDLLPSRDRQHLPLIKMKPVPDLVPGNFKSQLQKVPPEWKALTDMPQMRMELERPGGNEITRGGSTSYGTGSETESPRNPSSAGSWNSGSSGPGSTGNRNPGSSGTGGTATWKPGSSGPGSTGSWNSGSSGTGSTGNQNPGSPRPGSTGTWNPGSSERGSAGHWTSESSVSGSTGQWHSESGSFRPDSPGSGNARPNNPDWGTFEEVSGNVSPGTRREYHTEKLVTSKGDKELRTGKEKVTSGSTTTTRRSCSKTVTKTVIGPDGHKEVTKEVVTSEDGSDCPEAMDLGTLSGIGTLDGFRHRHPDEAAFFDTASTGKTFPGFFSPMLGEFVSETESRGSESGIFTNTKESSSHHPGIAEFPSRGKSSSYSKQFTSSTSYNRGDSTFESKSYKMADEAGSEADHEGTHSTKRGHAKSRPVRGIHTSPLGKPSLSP
molecule,measurement,setting,value
"H2N-GPRPG^6C (H-GPRPGGGGGGC; also: cross-linked to human albumin microspheres) [Peptide B, reference compound]",fibrinogen binding (in words),Fibrinogen [1]; absence of thrombin,bound fibrinogen
same,fibrinogen binding (in words),Fibrinogen [1]; presence of thrombin,bound fibrinogen
H2N-LVPRGPRPG^5K-MAL (H-LVPRGPRPGGGGGK-{MAL}; also: MAL maleimide linked to human albumin microparticles) [peptide C],clot formation in plasma vs unmodified control blank microparticles,plasma [2]; thrombin 0.25 U/ml added at the 2 min time point,accelerated clot formation
same,clot formation in plasma,plasma [2]; without the addition of thrombin,did not form a clot
same,amount of fibrinogen bound to microparticles,"Fibrinogen [3]; increasing thrombin concentration (0-0.64 U/mL), all three microparticle concentrations",increased
same,fibrinogen binding (in words),"Fibrinogen [3]; without thrombin, microparticles 0.7, 5 or 10 mg/ml",do not bind fibrinogen
same,electrical impedance (final aggregation) vs TCB without microparticles or blank microparticles,Thrombocytopenic blood,greater electrical impedance
same,clot formation in fibrinogen solution,"Fibrinogen [4]; absence of thrombin, fibrinogen 3 mg/ml",neither blank nor microparticles modified with peptide C formed a clot
same,turbidity decrease (clot formation) vs control unmodified microparticles,Fibrinogen [4]; thrombin 0.032 U/ml added at 2 min,decreased more rapidly
same,clot formation in plasma,"plasma [5]; exposed to thrombin both before (0.6 U/ml, 1 h) and during (0.25 U/ml) incubation with plasma",clot formation occurs
same,clot formation in plasma,"plasma [5]; without thrombin exposure, over the 20 min period",did not result in clot formation
H2N-LVPRGPRPG^6C (H-LVPRGPRPGGGGGGC; also: cross-linked to human albumin microspheres) [Peptide A],microspheres that bound fibrinogen,"Fibrinogen [1]; first incubated with thrombin (0.16 U/ml, 30 minutes), then mixed with fibrinogen",86%
same,microspheres that bound fibrinogen,"Fibrinogen [1]; not previously incubated with thrombin, fibrinogen 0.1 mg/ml, 1 hr",6%
B1,binding result,[6],no binding (tested: 0.1 mg/mL human fibrinogen)
